Source: patent publication US20250082756A1 (Regeneron, published 2025)

B1: pBB4015 CAR (8808 L-H; BBz) (other)
chain: EIVLTQSPDTLSLSPGERATLSCRASQSLSSNYLAWYRQKPGQAPRLLIYGISSRATGIPDRFSGSGSGTDFTLTISRLEPEDFAVYYCQQYGSSPWTFGQGTKVEIKGGGGSGGGGSGGGGSQVQLVESGGGVVQPGRSLRLSCVASGFTFSNYGIHWVRQAPGKGLEWVAVISDDGSFKFYADSVKGRFTISRDNSKNTLYLQMNSLRVEDSAVYHCAKWQHNWNDGGFDYWGQGTLVTVSSTTTPAPRPPTPAPTIASQPLSLRPEACRPAAGGAVHTRGLDFACDIYIWAPLAGTCGVLLLSLVITLYCKRGRKKLLYIFKQPFMRPVQTTQEEDGCSCRFPEEEEGGCELRVKFSRSADAPAYQQGQNQLYNELNLGRREEYDVLDKRRGRDPEMGGKPRRKNPQEGLYNELQKDKMAEAYSEIGMKGERRRGKGHDGLYQGLSTATKDTYDALHMQALPPR
B2: Anti-MUC16 7138 (antibody, V domains shown)
VH: QVQLVQSGAEVKKPGASVKVSCKASGYTFTSSDINWVRQATGQGLEWVGWMNPNYGYTGSARKFQDRVTMTRNTSLSTAYLELHSLRSEDTAVYYCARVTYCSSVTSCFRPFTYWGQGTLVTVSA
VL: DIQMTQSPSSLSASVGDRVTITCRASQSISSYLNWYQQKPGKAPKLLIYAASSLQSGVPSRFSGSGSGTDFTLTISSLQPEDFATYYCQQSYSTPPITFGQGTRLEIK
notes: also called BBz) and pBB4003 (7138 L-H
B3: Anti-MUC16 8804 (antibody, V domains shown)
VH: EVQLVESGGGLVQPGRSLRLSCTGSGLTFGDYGMSWVRQAPGKGLEWVGFIRSKGYGGTTEYAASVKGRFTISRDDSKSTAYLQMNSLKTEDTAVYYCTSGGYDSSVHYYYYYYAMDVWGQGTTVTVSS
VL: not shown
notes: also called BBz) and pBB4013 (8804 L-H
B4: Anti-MUC16 8799 (antibody, V domains shown)
VH: EVQLVESGGGLEQPGRSLRLSCTASGFAFGDHTMSWVRQAPGKGLEWVGFIRSRAYGGTTEYAASVKGRFTISRDDSKSIAYLQMDSLKTEDTAVYYCTSGGYDSSLHYYYYYHGMDVWGRGTTVTVSS
VL: EIVLTQSPGTLSLSPGERATLSCRASQSITSSYLAWYQQRPGQAPRLLIYGASSRATGIPDRFSGSGSGTDFTLTISRLEPEDFAVYYCQQYGSSPWTFGQGTKVEIK
notes: also called BBz) and pBB4011 (8799 L-H
B5: Anti-MUC16 8810 (antibody, V domains shown)
VH: EVQLVESGGALVQPGGSLRLSCAASGFTFSSYAMHWVRQAPGKGLEFVSTISYNGGTTYYADSVKGRFTVSRDNSKNTVFLRMGSLRTEDMAVYYCARAAAPWGQGTLVTVSS
VL: EIVLTQSPDTLSLSPGERATLSCRASQSVSNRYLAWYQQKPGQAPRLLIYGASSRATGIPDRFSGSGSGTDFTLTISRLEPEDFAVYYCHQYGSSPWTFGQGTKVEIK
notes: also called BBz) and pBB4017 (8810 L-H
B6: Anti-MUC16 8808 (antibody, V domains shown)
VH: QVQLVESGGGVVQPGRSLRLSCVASGFTFSNYGIHWVRQAPGKGLEWVAVISDDGSFKFYADSVKGRFTISRDNSKNTLYLQMNSLRVEDSAVYHCAKWQHNWNDGGFDYWGQGTLVTVSS
VL: EIVLTQSPDTLSLSPGERATLSCRASQSLSSNYLAWYRQKPGQAPRLLIYGISSRATGIPDRFSGSGSGTDFTLTISRLEPEDFAVYYCQQYGSSPWTFGQGTKVEIK
notes: also called BBz) and pBB4015 (8808 L-H
B7: Anti-MUC16 8767 (antibody, V domains shown)
VH: QVQLVESGGGLVKPGGSLRLSCAASGFTFSNYYMSWVRQAPGKGLEWISYISGRGSTIFYADSVKGRITISRDNAKNSLFLQMNSLRAEDTAVYFCVKDRGGYSPYWGQGTLVTVSS
VL: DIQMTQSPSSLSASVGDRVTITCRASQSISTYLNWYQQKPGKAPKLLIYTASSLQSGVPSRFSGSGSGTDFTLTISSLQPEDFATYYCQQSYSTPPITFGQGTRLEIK
notes: also called BBz) and pBB4007 (8767 L-H
B8: Anti-MUC16 7135 (antibody, V domains shown)
VH: EVQLVESGGGLVQAGGSLRLSCAASGFTFSYHEMNWVRQAPGKGLEWVSYIGSRGTTKHYADPVKGRFTISRDNAKNSLYLQMNSLRAEDTAVYYCASEVGSILGYSMDVWGQGTTVTVSS
VL: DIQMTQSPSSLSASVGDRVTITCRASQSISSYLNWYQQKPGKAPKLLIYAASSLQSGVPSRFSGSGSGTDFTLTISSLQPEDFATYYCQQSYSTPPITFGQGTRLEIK
notes: also called BBz) and pBB4001 (7135 L-H
B9: Anti-MUC16 8813 (antibody, V domains shown)
VH: QVQLVQSGAEVKKPGASVKVSCKAFGYTLTGYYIHWVRQAPGQGLEWMGWINPNNGGTNYAQKFQGRVTMTRDKSISTAYMELSRLRSDDTAVYYCARSLELLPDGMDVWGQGTTVTVSS
VL: not shown
notes: also called BBz) and pBB4019 (8813 L-H
B10: Anti-MUC16 8794 (antibody, V domains shown)
VH: QVQLVESGGGLVKPGGSLRLSCAASGFTFRDYSMSWIRQAPGKGLEWVSYVTFFNSAIYYADSVKGRFTISRDNAKNSLYLQMNSLRAEDTAVYYCAREREPIVGGFDYWGQGTLVTVSS
VL: DIQMTQSPSSLSASVGDRVTITCRASQSINSYLNWYQQKPGKAPKLLIYAASSLQGGVPSRFSGGGSGTDFTLTITSLQPEDFATFYCQQSYSSPPITFGQGTRLEIK
notes: also called BBz) and pBB4009 (8794 L-H
B11: Anti-MUC16 8755 (antibody, V domains shown)
VH: EVQLVESGGGLVQPGRSLRLSCAASGFTFNDYAMHWVRQSPGKGLEWVSGIDWNGGSIDYADSVKGRFTISRDTAKNSLYLQMNSLKVEDTALYYCAKDIGHWNYIGGMDVWGQGTTVTVSS
VL: DIQMTQSPSSLSASVGDRVTITCRASQSINIYLNWYQQKPGKAPKFLIYAASSLQTGVPSRFSGSGSGTDFTLTISSLEPEDFATYYCQHSYSTPPITFGQGTRLEIK
notes: also called BBz) and pBB4005 (8755 L-H

Biological target: T1, MUC16 ectodomain stably expressed on engineered RD tumor cells (high, medium or low levels) (human)
T1 chain: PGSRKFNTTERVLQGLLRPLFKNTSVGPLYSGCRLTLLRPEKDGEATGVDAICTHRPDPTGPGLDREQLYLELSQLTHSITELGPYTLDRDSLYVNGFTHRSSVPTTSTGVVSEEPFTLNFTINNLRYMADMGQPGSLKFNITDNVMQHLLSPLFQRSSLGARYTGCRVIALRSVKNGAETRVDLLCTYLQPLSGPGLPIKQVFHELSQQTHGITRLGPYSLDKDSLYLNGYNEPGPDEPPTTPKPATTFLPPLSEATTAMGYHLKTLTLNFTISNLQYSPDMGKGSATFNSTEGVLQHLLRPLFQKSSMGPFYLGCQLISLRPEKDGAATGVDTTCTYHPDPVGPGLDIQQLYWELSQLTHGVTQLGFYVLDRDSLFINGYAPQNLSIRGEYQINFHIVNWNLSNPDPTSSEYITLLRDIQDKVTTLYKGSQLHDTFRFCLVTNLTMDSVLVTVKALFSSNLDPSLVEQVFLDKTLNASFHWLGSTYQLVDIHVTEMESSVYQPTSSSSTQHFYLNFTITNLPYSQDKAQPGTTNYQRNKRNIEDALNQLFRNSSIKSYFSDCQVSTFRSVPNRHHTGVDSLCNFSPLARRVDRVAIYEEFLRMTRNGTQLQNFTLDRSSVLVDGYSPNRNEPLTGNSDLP
Assay: cell-based or functional assay

Row | Binder | percent (%) of tumor cell killing, RD low antigen positive tumor cells, 2.5:1 E:T ratio, 72 hours, impedance analyzer | percent (%) of tumor cell killing, RD medium or high antigen positive tumor cells, all E:T ratios, 72 hours, impedance analyzer
1 | B1 | < 60 % cytotoxicity | > 70 % cytotoxicity

Biological target: T2, MUC16-nub ectodomain antigen (human MUC16 membrane proximal domain P13810-P14451 having a myc-myc-his tag) (human)
T2 construct: also called MUC16 ectodomain
T2 chain: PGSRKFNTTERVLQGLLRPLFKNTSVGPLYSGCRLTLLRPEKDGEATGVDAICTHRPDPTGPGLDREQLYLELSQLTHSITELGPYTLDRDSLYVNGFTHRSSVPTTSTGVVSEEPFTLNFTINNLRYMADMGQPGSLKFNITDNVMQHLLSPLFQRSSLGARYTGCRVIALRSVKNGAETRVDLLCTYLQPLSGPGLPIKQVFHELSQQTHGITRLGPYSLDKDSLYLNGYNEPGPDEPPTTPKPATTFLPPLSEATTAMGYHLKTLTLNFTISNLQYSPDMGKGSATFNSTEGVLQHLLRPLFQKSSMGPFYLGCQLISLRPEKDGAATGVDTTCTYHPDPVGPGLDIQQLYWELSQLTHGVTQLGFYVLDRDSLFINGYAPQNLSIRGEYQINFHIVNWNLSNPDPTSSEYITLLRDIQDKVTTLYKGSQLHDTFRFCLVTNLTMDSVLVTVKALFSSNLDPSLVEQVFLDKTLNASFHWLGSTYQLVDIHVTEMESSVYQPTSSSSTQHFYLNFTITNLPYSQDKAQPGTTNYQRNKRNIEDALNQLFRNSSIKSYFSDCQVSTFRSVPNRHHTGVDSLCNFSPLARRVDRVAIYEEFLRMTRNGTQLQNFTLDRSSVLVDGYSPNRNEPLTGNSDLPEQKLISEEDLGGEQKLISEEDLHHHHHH
Assay: Binder Kd of Table 3; method and antigen not described

Row | Binder | Kd
2 | B2 | 0.321 nM
3 | B3 | 1.86 nM
4 | B4 | 0.826 nM
5 | B5 | 1.12 nM
6 | B6 | 0.277 nM
7 | B7 | 1.01 nM
8 | B8 | 10.5 nM
9 | B9 | 0.32 nM
10 | B10 | 0.554 nM
11 | B11 | 0.124 nM

Biological target: T2, MUC16-nub ectodomain antigen (human …)
Assay: cell-based or functional assay

Row | Binder | EC50 (read off the curve); IFNγ release of BB4015 CAR T cells against the coating concentration of MUC16 nub
12 | B1 | ~0.05 mg/L
